For experiment [1], the target named is Neptune (mKate M41G S61C S158C Y194F). As to the kind of experiment: SEC-MALS. A general note: In gel filtration, larger molecules generally elute earlier.
Experiment [2] shares this target. As to the kind of experiment: native gel or EMSA. (In general: Mobility shift assays separate free from complexed probe on a gel.)
The target is the same in experiment [3]. As to the kind of experiment: AUC.
Experiment [4] concerns the target Neptune, His tag removed by TEV protease (crystallized form). As to the kind of experiment: crystal structure.
Experiment [5] concerns the target mKate. As to the kind of experiment: SEC-MALS.
The target of experiment [6] is mKate. Nature of the experiment: native gel or EMSA.
For experiment [7], the target named is dTomato. As to the kind of experiment: SEC-MALS.
Experiment [8] has as its target dTomato. As to the kind of experiment: native gel or EMSA.
Experiment [9] deals with dTomato. Nature of the experiment: SDS-PAGE of unboiled samples.

Here are results for four substances from article PMC2814181.

By stoichiometry N is commonly meant a count of units in the complex or per binding partner. In general, Kd refers to the concentration at which binding is half-saturated. A higher Kd goes with lower affinity. For the substance Neptune (mKate M41G S61C S158C Y194F), the stoichiometry N in [1] and in [2] was 2 throughout. Also, the Kd in experiment [3] turned out to be 500 nM.
Substance “Neptune, His tag removed by TEV protease (crystallized form)” returned a stoichiometry N in experiment [4] of 4.
On to mKate, for which the stoichiometry N in the experiment with mKate [5] and in the experiment with mKate [6] was 2 each time.
Consider dTomato, for which the stoichiometry N with dTomato [7], with dTomato [8] and with dTomato [9] was 2 each time.
